Data reported in the supplement of paper PMC7125110.
± gives the standard error. Variants at the floor of the assay were thinned out.

B1: glmS ribozyme (parent)
chain: AUAAAAGCGCCAGAACUACAGAAAUGUAGUUGACGAGGAGGAGGUUUAUCGAAUUUUCGGCGGAUGCCUCCAAA

Assays:
Conditions in all cases: with glucosamine-6-phosphate
glucosamine-6-phosphate [1] = variants of: B1; experiment: self-cleavage kobs at 40 uM GlcN6P; higher = faster cleavage; RNA array
Outline: (§1)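 E. coli RNA polymerase transcribed barcoded ribozyme variants in situ on sequenced MiSeq chips, which were tracked via a hybridised Cy3 probe at 37 °C. Tiles were imaged over ~14 h after glucosamine-6-phosphate (40 μM to 10 mM) in HEPES/KCl/Mg(OAc)2 buffer was flowed in. Normalised per-tile medians were fit to one- or two-exponential decays for kobs, and kcat and KM came from weighted Michaelis–Menten fits.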

glucosamine-6-phosphate [2] = variants of: B1; experiment: self-cleavage kobs at 640 uM GlcN6P; higher = faster cleavage; RNA array
Outline: as §1

glucosamine-6-phosphate [3] = variants of: B1; experiment: self-cleavage kobs at 10000 uM GlcN6P; higher = faster cleavage; RNA array
Outline: as §1

glucosamine-6-phosphate [4] = variants of: B1; experiment: self-cleavage kobs at 160 uM GlcN6P; higher = faster cleavage; RNA array
Outline: as §1

glucosamine-6-phosphate [5] = variants of: B1; experiment: self-cleavage kobs at 2500 uM GlcN6P; higher = faster cleavage; RNA array
Outline: as §1

Variant | self-cleavage kobs at 40 uM GlcN6P (glucosamine-6-phosphate [1]) | self-cleavage kobs at 640 uM GlcN6P (glucosamine-6-phosphate [2]) | self-cleavage kobs at 10000 uM GlcN6P (glucosamine-6-phosphate [3]) | self-cleavage kobs at 160 uM GlcN6P (glucosamine-6-phosphate [4]) | self-cleavage kobs at 2500 uM GlcN6P (glucosamine-6-phosphate [5])
C16U C50G G62A C67G | 6.99e-05 ± 1.9e-05 s⁻¹ | 0.000337 ± 7.8e-05 s⁻¹ | 9.28e-05 ± 1.6e-05 s⁻¹ | – | –
C8U G66C | – | < 1e-05 s⁻¹ | < 1e-05 s⁻¹ | < 1e-05 s⁻¹ | < 1e-05 s⁻¹
A15C G40A U49G C71U | < 1e-05 s⁻¹ | – | 4.71e-05 ± 1.3e-05 s⁻¹ | – | –
G32A G51C | – | < 1e-05 s⁻¹ | – | < 1e-05 s⁻¹ | < 1e-05 s⁻¹
A6G A33G A48G A64U | < 1e-05 s⁻¹ | – | < 1e-05 s⁻¹ | – | –
G35A C50G C61G | 0.000147 ± 3e-05 s⁻¹ | – | 0.000252 ± 4.7e-05 s⁻¹ | – | –
C8A A33C G35U G63U | – | < 1e-05 s⁻¹ | – | < 1e-05 s⁻¹ | < 1e-05 s⁻¹
A33U G35U A42U G44U | – | < 1e-05 s⁻¹ | – | < 1e-05 s⁻¹ | < 1e-05 s⁻¹
A48C G63A C70A | < 1e-05 s⁻¹ | – | – | – | –
A42U U57C | < 1e-05 s⁻¹ | < 1e-05 s⁻¹ | – | < 1e-05 s⁻¹ | –
G29U U30G A39U | – | – | – | 8.86e-05 ± 2.1e-05 s⁻¹ | 0.0013 ± 0.00029 s⁻¹
G35A G43U U45C A53G G59A | – | < 1e-05 s⁻¹ | – | < 1e-05 s⁻¹ | –
G7U U47A A52C A53U U55G C61U | – | < 1e-05 s⁻¹ | – | < 1e-05 s⁻¹ | < 1e-05 s⁻¹
G32U G60U | – | < 1e-05 s⁻¹ | – | < 1e-05 s⁻¹ | < 1e-05 s⁻¹
C34U C71U | – | < 1e-05 s⁻¹ | < 1e-05 s⁻¹ | < 1e-05 s⁻¹ | < 1e-05 s⁻¹
A15G U31A G35U C67G | – | < 1e-05 s⁻¹ | – | < 1e-05 s⁻¹ | < 1e-05 s⁻¹
G9A A42G G44C U56G U65G | – | < 1e-05 s⁻¹ | – | < 1e-05 s⁻¹ | –
G7U G59A | – | < 1e-05 s⁻¹ | < 1e-05 s⁻¹ | < 1e-05 s⁻¹ | < 1e-05 s⁻¹
A42C G44A U49C | – | < 1e-05 s⁻¹ | – | < 1e-05 s⁻¹ | < 1e-05 s⁻¹
G63A G66C | – | < 1e-05 s⁻¹ | < 1e-05 s⁻¹ | < 1e-05 s⁻¹ | < 1e-05 s⁻¹
G43A G59A A64U | – | – | < 1e-05 s⁻¹ | < 1e-05 s⁻¹ | –
C16G A48G C68A C71G | – | 0.000118 ± 3.8e-05 s⁻¹ | – | 5.61e-05 ± 2.2e-05 s⁻¹ | –
U57G G62C A64U | – | – | < 1e-05 s⁻¹ | < 1e-05 s⁻¹ | < 1e-05 s⁻¹
